Data as given in the nanobody polyreactivity screen of Harvey et al. (2022).

Assay: yeast display, Sf9 membrane polyspecificity reagent, FACS + sequencing; frameworks hold sequencing errors
Procedure, shortened: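 Genes from sorted yeast were amplified by colony PCR, read by MiSeq 2 × 250 sequencing and filtered on CDR length. These cells carried a synthetic nanobody library in Saccharomyces cerevisiae BJ5465 and were sorted by FACS into low and high (top ~1%) gates on anti-HA and streptavidin fluorescence. Polyreactivity is labelled according to the gate of origin.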

Sequence | polyreactivity (PSR sort gate)
QVQLVESGGGLVQAGGSLRLSCAASAGILRQNTMGWYRQAPGKERELVAAISSSGGRTYYADSVKGRFTISRDNAKNTVYLKMNSLIPDDPAVYYCAGKIVSRYRVIYDYWGQGTQVTVSS | high polyreactivity
QVQLVETGGGLVQAGGSHRLSCAASGFIIPYYAKGWSRQPPGKERELLAAIDSGGSTNYADSVKGRFTISRDNAKNTVSLQMNRLIPEDTAVYYCAVPSYGVNIWGGFDEYNYWGQGTQVTVSS | high polyreactivity
QVQLVESGGGLVQAGGSLRLSCAASGSTFERYAMGWYRPAPGKERELVAAISAIGDSTYYADSVKGRFTISRDNAKNTVYLQMNSLKPEDTAVYYCAARYTRYHIGRGYYYWGQGTQVTVSS | high polyreactivity
QVQLVESGGGLDQAGGSLRLSCAASGIIFPVYARGGYRQAPGKERELVAAISSVGSTNYADSVKGRFTISRDNAKNTVYLQMNSLKPEDTAVYYCAVDWAQEDGYWGQGPQVTVSS | low polyreactivity
QVQLVESGGGLVQAGGSLRLSCAASGSIFPYNAMGWYRQAPGKERELVAAITTSGTSTYYADSVKGRFTISRDNAKNTVYLQMNSLKPEDTAVYYCAATSRGAISKARFYYWGQGTQVTVSS | high polyreactivity
QVQLVESGGGLVQAGGSLRLSCAASGRTFVFNGMGWYRPAPGKERELVAAINWDGGDTYYADSVKGRFTISRDNAKNTVYLQMNSLKPEDTAVYYCAAEGIFRYYTQATMEYWGQGTQVTVSS | low polyreactivity
QVQLVESGGGLVQAGGSLRLSCAASGSTFGSNAMGWYRQAPGKERELVAAISSSGSTYYADSVKGRFTISRDNAKNTVYLQMNSLKPEDTAVYYSAAPGSPYGYWGQGTQVTVSW | high polyreactivity
QVQLVESGGGLVQAGGSLRLSCAASGFTFAYYAMGWYRQAPGKERELVATITSGGRTYYADSVKGRFTISRDNAKNTVYLQMNSLKPEDTAVYYCAAAGKGRYHFRSTMDYWGQGTQVTVSS | high polyreactivity
QVQRVESGGGLVQEGGSLRLSCAASGLIFAIYAMGWYRQAPGKDRELVAAMRWSGASTYADSVKGRFTNSRDNAYNTVYLQMISLKREDTAVYYCAADDLLDYDYWGQGTQVTVSS | low polyreactivity
QVQLVESGGGLVQAGGSLRLSCAASGSTFKPYAMGWYRQAPGKERELVAAISKSGGSTRYADSVKGRFTISRDNAKNTVYLQMNSLKPEDTAVYYCAADYIYVKYEYWGQGTQVTVSS | high polyreactivity
QVQLVETVGGLDQAGGSLLLSCAASGRIFWENALGWYRQAPGKERELVAAISDSVVITYYADSVKGRFTISRDNAKNTVYLQMNSLKPEDTAVYDCAADKRGSVYLSSFWMDYWGQGTQVTVSS | low polyreactivity
QVQLVESGGGLGQAGGSLRLSCAASGRIFRGYAMGWYRQAPGTDRELVATISAIGGSTYADSVKGRFTIARDNAKNTVYLQMNSLKPEDTAVYYCNKVHFRPRYFLRSDYWGQGTQGTVSS | high polyreactivity
QVQLVESGGGLVQAGGSLRLSCAASGLTFEVYAMGWYRQAPGKERELVAAISSGGGSTYYADSVKGRFTISRDNAKYTVYLQMNSLKPEDSAVYYCNAVAKLYYWRYDYWGQGTQVTVSS | low polyreactivity
QVQVVDSGGGLVQAGGSLRLSCAASGLTIVKNVMGWYRQAPGKERELVAAISRRGGSTYYADSVKGRFTISRDNAKNTVYLQMNSLKPEDTAVYYCNAVLNQLSYIYPAVGYWGQGTQVTVSS | high polyreactivity
QVQLVESGGGLVQAGGSLRLSCAASGSTFIYYTMVWYRQAPGKERELVAAIPSSGGSTYYADSVKGRFTISRDNAKNTVYLQMNSLKPEDNAVYYCAADGTYIKFAKLYRSYDYWGQVTQVTVSS | low polyreactivity
QVQLVESGGGLVQAGGSLRLSCAASGSIFTHNAMGWYRQAPGKERELVAAISSGGSTNYADSVKGPFTISRDNAKNTVYLQMNSLKPEDTAVYYCAKSIDGWYWRRRRYDYWGQGTQVTVSS | low polyreactivity
QVQLVESGGWLVQAGGSLRLSCAASGSSFYGYGMGSYRQAPGKERELVAANTGSGDTTYYADSVKGRFTNSRDNEKNTVYLQMNSLKPEDTAVYYCNARWHAEYDYWGQGTQVTVSS | low polyreactivity
QVQLQESGGDLEQAGGSLRLSCTASGTNSDVRVMGWYRQAPGKERELVATISYVTITYYADSVKGRLTISRDSEKHRVSADDEPETGRYRGVLLRYYWGLGTQVTVSS | low polyreactivity
QVQLVESGGGLVQAGGSLRLSCAASGSIFGGYTMGWYRQAPGKERELVAAISRRGGNTYYADSVKGRFTISRDNAKNTVYLQMNSLKPEDTAVYYCNARPTTYNYDYWGQGTQVTVSS | high polyreactivity
QVQLVESGGGLVQAGGSLRLSCAASGIIFINYAMGWYRQAPGKEWELVAAITSSGGSTYYADSVKGRFTISRDNAKNTVYLQMNSLKPEDTAVYYCAAVSSYWGQGTQVTVSS | low polyreactivity
QVQLVESGGRLVQAGGSLRLSCAASGRTFSVYAMGWYRQAPGKERELVAGITSGGSTNYADSVKGRFTISRDNAKNTVYLQMNSRKPEDTAVYYCAAEIVYAAFGFDSIGDYWGQGTQVTVSS | low polyreactivity
QVQHVESGGGLVQAGGSLRLCCAATGNTFGINAMGWYRQAPGKERELDASITGSAGSTYYADSVKGRFTISRDNAKNTVYLQMNSLKPEDTAVYYCNAGARGVMSQPWVIKYYYWGQGTQGTVSS | high polyreactivity

Sequence | polyreactivity (PSR sort gate)
QVQLVESGGGLVQAGGSLRLSCAASGSIFANAMGWYRQAHGKERELVAAISFSGGRTFYADSVKGRFTISRDNAKNTVYLQMNSLKPEDTAVYYCAKGKISSRSGIYNYWGQGTQVTVSS | high polyreactivity
QVQLVESGGGLVQAGGSLRLSCAASGLTFIEYAMGWYRQAPGKERELVAAISSGGRTYYADSVKGRFTISRDNAKNTVYLQMNSLKPEDTAVYYCNARGYRRWYNYWGQGTQVTVSS | high polyreactivity
QVQLVESGGGLVQAGGSLRLSCAASGSIFSKNAMGWYRQAAGKEWEWVAAISRSAGSTYYADSVKGRFTISRDNAKNTVYLQMNSLKPEDTAVYYCAAEGYRWVTAYYDYDEDYWGQGTQVTVSS | low polyreactivity
QVQLVESGGGLVQAGGSLRLSCAASGSISIVYTMGWYRQAPGKERELVATISWSGGNTYYADSVKGRFTISRDYAKNTVYLQMNSLKPEDTAVYYCAARWYYYPLLYDYWGQGTQVTVSS | low polyreactivity
QVQLVESAGGLVQAGASLRLSCDASGRIFPSNAMGWSRQAPGKERELVAAITSSGGSTYYADSVKGRFTISRDYAKNTVYLQMNSLKPEHTAVYYCPARFYSGPGGYTIYYWGQGTQVTVSS | high polyreactivity
QVQLVESGGGLVQAGGSLRLSCAASGFIFTYYAMGWYRQAPGKERELVAAISRIGGSTYYADSVKGRFTISRDNAKYTVYLQMNSLKPEDTAVYYCARYSWPLNKLAVDYWGQGTQVTVSS | high polyreactivity
QVQLVESGGGLVQAGGSLRLSCADSGFTFSWYTMGWYRQAPGKERELVAAITVSGGSTYYADSVKGRFTISRDYAKNTVYLQMNSLKPEDTAVYYCNAQDPFTYYSSSPTYDYWGQGTQVTVSS | low polyreactivity
QVQLVESGVGLVQAGGSLRLSCAASGRIFNSYAMGWYRQAPGKERELVAAISRNGGITYYADSVKGRFTISRDNAKNTVYLQMNSLKPEDTAVYYCAADGLTPKAIWTSDYWGQGTQVTVSS | high polyreactivity
QVQLVESGGGLVQAGGSLRLICAASGSTCVDNAMGGYRPAPGKERELVADISSVGSTYYADYVKGRFTISRDNAKNTVYLQMNTLIPEDTAVYYCNRAGGYRTTFYSWGQGTQVTVSS | high polyreactivity
QVQLVESGGGIVQAGGSLRLSCAASGFIFVANAMGRYRQAPGKERQLVAAISGSGGSTFYADSVKGRFTISRDNAKNTVNLQMNSLKPEDTAGYYCNADAYDYSGYFEYDCWGQGTQETVSS | high polyreactivity
QVQLVESGGGLVQAGGSLRLSCAASGFTFYIYAMGWYRQAPGKERELVAAINFRGGSTYYADSVKGRFTISRDNAKNTVYLQMNSLKPEDTAVYYCAARSRDKYDYWGQGTQVTVSS | high polyreactivity
QVQLVESGGGLVQAGGSLRLSCAASGSTFVGYAMGWYRQAPGKERELVADIDSIGGSTYYADSVKGRFTISRDNAKNTVYLQMNSMKPEDTAVYYCAARRFDTALVLYDYWGQGSQVTVSS | low polyreactivity
QVQLVESGGGIVQAGGSLRLSCAASGRTFYGNVMGWYRQAPGKERELVATISFSAGSTYYADSVKGRFTISRDNAKNTVYLQMNSLKPEDTAVYYCNADHTDYASGGGNYWGQGTQVTVSS | low polyreactivity
QVQLVESGGGLVQAGGSLRLSCAASGSTFSIYAMGWYRQAPGKEREFVAAISSSSGSTYYADSVKGRFTISRDNAMNTVYLQMNSLKPEDTAVYYCIRRYRRGGVKGVYYWGQGTQVTVSS | high polyreactivity
QVQLVESGGGLVQAGGSLRLSCAASGRIFGTNAMGWYRQAPGKERELVADITSGGSTNYADSVKGRFTISRDNAKNTVYLQMNSLKPEDTAVYYCAADVIADLRWYRDEYWGQGTQLTVSS | low polyreactivity
QVQLVESGGGLVQAGGSLRLSCAASGRIFGYYTMGWYRQAPGKERELVATIDWSGDSTYYADSVKARFTISRDNAKNTVYLQMNSLKPEDTAVYYCAARDHAFRYYRNPYKGKYDYWGQGTQVPVSS | low polyreactivity
QVQLVESGGGLVQAGGSLRLSCAASGRTFRWYAMGWYRQAPGKERELVAAITSSSSTNYADSVKGRFTISRDNAKNTVYLQMNSLKPEDTAVYYCAKGWNWYDLGESGYWGQGTQVTVSS | low polyreactivity
QVQLVESGRGLVQAGGSLRLSCAASGNTFGENAMGWYRKAPGKERELVAAISNGGTTNYADSVKGRFTISRDNAKNSVYLQMNSLKPEDTAVYYCNAKFGISQPGHSGLLKMDYWGQGTQVTVSS | low polyreactivity
QVQLVESCGGLVQAGGSLRLSCAASGFIFYYYAMGWYRQAPGKERELVAGITRGGSTYYADSVKGRFTISRDNAKNTVYLQMNSLKPEDTAVYYCASTYYLSYTSGTFGKFGYWGQGTQVTVSS | high polyreactivity
QVQLVESGGGLVQAGGSLRLSCAASGNIFLYYAMGWYRQAPGKERELVADIDSSGASTYYADSVKGRFTISRDNAKNTVYLEMNSLKPEDTAVYYCAAEFHWWYAGYDYGYWGQGTQVTVSS | low polyreactivity
QVQLVESGGGLVQAGGSLRLSCAASGRTFSTYAMGWYRQAPGKERELVARITSSGGSTYYAHSVKGRFTISRDIAKNSVYLQMNCLKPEDTAVYYCAAYAHYAQRYYYWGQGTQVTVSS | high polyreactivity
